Here are results for five molecules from patent US20240301071A1 (Alector, published 2024).

Test [1] has as its target T1, human SIRPA on human macrophages (primary monocyte-derived macrophages; U937 line) (human, UniProt P78324 31-504). Description: cell-based or functional assay.
Test [2] concerns the target T1, human SIRPA on human macrophages …. In words: cell-based or functional assay. This is another data set of the same source.
Test [3] concerns the target T2, human SIRPA v1 on BWZ cells (BWZ-huSIRPA) (human, UniProt P78324 31-504).
T2 construct: also called BWZ cells overexpressing human SIRPA; BWZ-huSIRPA v1 cells
Description: flow cytometry titration on BWZ-huSIRPA cells, 4 C. The method, then:
After addition of fluorescently labeled secondary antibody and brief washing steps, MFI values as a function of titrated antibody concentration was recorded via FACS analysis. […] Receptor bound antibodies were detected by staining cells with anti-human IgG PE secondary antibody. Curves were fit using nonlinear regression analysis with Graphpad Prism 6 software.
Background: In flow cytometry, cells or beads pass a laser one at a time.

Test [4] addresses T2, human SIRPA v1 on BWZ cells …. Description: flow cytometry titration on BWZ cells overexpressing huSIRPA, 4 C. The method, then:
Receptor bound antibodies were detected by staining cells with anti-mouse IgG Fc APC or anti-human IgG PE secondary antibody. Serial dilutions of the monoclonal antibodies were added to 10⁵ BWZ cells overexpressing huSIRPA (BWZ-huSIRPA) and allowed to achieve binding equilibrium at 4° C. After addition of fluorescently labeled secondary antibody and brief washing steps, mean fluorescent intensity (MFI) values as a function of titrated antibody concentration was recorded via FACS analysis. Curves were fit using nonlinear regression analysis with Graphpad Prism 6 software.

The target of test [5] is T3, histidine-tagged human SIRPA (Sino Biological) (human, UniProt P78324 31-370).
T3 construct: bought, soluble; also called histidine-tagged huSIRPA isoform 1; soluble SIRPA antigen; not shown: histidine tag
Description: BLI (Octet RED96), antibody captured on anti-mouse IgG Fc sensor, His-tagged SIRPA in solution, 1:1 model. The method, then:
(§1) Affinity measurements for the anti-SIRPA antibodies were performed as follows. Bio-layer interferometry (BLI) data were collected on a Pall ForteBio Octet RED96 instrument. Data analysis was performed using ForteBio Data Analysis Software, version 9.0. Standard kinetic buffer (PBS, 0.100 BSA, 0.02% Tween-20, pH 7.2) was used for the assay and for preparing reagents. […] Varying concentrations (0-200 nM) of histidine-tagged human SIRPA (Sino Biological, Beijing, China) were then bound to the captured anti-SIRPA surface (300 s association time, 600 s dissociation time). The resulting BLI signal was obtained as the difference in response from the reference (2.5 μg/mL IgG+0 nM SIRPA) sensor. […] Multi-concentration kinetic analysis was performed using a 1:1 interaction model to extract association and dissociation rate constants (ka and kd, respectively) for each antibody. Binding affinity constants (KD) were calculated from the ratio kd/ka.
(§2) Best-fit traces from the resulting sensorgrams were analyzed to calculate association rate, dissociation rate, and affinity values.
(In general: In BLI a coated tip is dipped into the sample, and binding shifts an interference pattern.)

Test [6] has as its target T4, cynoSIRPA XPO15313153.1 (cynomolgus, UniProt A0A2K5VYQ9).
T4 construct: not tied one by one in the text; also called cynomolgus SIRPA; not shown: Fc or His tag
T4 sequence: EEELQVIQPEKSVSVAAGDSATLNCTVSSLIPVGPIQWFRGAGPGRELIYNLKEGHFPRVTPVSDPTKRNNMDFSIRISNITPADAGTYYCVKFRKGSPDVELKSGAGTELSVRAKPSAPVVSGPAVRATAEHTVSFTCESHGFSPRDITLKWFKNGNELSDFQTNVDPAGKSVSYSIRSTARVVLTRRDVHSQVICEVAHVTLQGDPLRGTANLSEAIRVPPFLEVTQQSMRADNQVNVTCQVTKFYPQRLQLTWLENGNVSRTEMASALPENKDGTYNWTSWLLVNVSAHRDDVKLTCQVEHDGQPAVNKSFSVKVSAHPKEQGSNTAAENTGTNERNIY
Description: ELISA, plate coated with tagged SIRPA at 1 ug/mL. The procedure:
(§3) In an ELISA assay, 96-well Immulon HBX plates were coated with His- or Fc-tagged SIRPA of a given species, as indicated, at 1 μg/mL in PBS overnight at 4C. Plates were blocked in 5% (w/v) bovine serum albumin in PBS for 1 hour, after which they were washed 3 times with PBS/0.05% Tween 20 (PBS/T). Anti-SIRPA antibodies were added to the plate in a dilution series and were incubated at room temperature for 2 hours, after which the unbound antibody was removed by washing with PBS/T. Horseradish peroxidase-conjugated anti-mouse IgG or anti-human kappa light chain (Jackson Immunoresearch) was then added to the wells and incubated for 30 minutes. Unbound antibody was removed by washing with PBS/T, after which bound antibody was detected using tetramethylbenzidine (TMB). The reaction was stopped with 2N H₂SO₄, after which the plates were read at A450.
(In general: ELISA stands for enzyme-linked immunosorbent assay.)

For test [7], the target named is T5, rat SIRPA (rat, UniProt P97710 32-373, limits assumed).
T5 sequence (looked up): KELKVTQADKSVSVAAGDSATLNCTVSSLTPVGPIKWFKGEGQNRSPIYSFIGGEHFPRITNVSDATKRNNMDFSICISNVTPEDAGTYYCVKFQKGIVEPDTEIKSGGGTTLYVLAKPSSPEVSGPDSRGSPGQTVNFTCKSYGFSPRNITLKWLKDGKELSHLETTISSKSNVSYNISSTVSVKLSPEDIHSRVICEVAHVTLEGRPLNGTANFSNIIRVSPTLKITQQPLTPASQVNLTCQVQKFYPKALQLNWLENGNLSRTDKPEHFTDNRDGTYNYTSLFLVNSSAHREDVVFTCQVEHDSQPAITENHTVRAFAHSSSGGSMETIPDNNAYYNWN
In words: ELISA, plate coated with tagged SIRPA at 1 ug/mL. The procedure:
as §3

The target in test [8] is T6, huSIRPA v.2 NP542970.1 (human, UniProt P78324 31-373, limits assumed).
T6 construct: see m48; also called human SIRPA v2; human SIRPA-Fc (v2)
In words: ELISA, plate coated with tagged SIRPA at 1 ug/mL. The method, then: as §3

Test [9] has as its target T2, human SIRPA v1 on BWZ cells …. Description: flow cytometry competition on BWZ-huSIRPA v1 cells, competitor: fluorophore-labelled reference m3F9. An excerpt: IC50 values provide another comparison of relative affinity.
Test [10] deals with T7, CynoSIRPA (NP_001271679.1) (cynomolgus, UniProt A0A2K5VYQ9 31-507).
T7 sequence: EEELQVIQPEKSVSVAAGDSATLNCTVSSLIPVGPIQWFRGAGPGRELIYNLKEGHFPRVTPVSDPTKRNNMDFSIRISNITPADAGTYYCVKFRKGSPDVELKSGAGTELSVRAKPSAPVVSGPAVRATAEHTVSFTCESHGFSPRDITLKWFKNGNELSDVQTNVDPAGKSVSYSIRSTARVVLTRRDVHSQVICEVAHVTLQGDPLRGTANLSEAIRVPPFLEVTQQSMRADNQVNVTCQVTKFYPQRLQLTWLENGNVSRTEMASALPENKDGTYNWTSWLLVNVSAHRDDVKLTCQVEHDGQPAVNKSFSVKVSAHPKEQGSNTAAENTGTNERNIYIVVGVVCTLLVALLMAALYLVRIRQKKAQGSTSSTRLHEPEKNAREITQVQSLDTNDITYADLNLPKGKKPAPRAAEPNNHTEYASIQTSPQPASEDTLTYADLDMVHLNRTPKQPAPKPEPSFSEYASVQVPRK
In words: ELISA, plate coated with SIRP protein. The procedure:
as §3

The target of test [11] is T3, histidine-tagged human SIRPA (Sino …). In words: BLI (Octet RED96), antibody captured on anti-human IgG Fc sensor, His-tagged SIRPA in solution, 1:1 model. The method, then: as §1, §2

Broadly, the EC50 is the concentration giving half of the maximal effect. A low value points to higher potency in that assay. In general, Kd refers to the constant that tells how readily two partners part at equilibrium. A high value points to a looser complex. As a reminder, the koff is the rate constant with which the complex falls apart. Low readings indicate a long-lived complex, high ones a short-lived complex. A word on the kon: it is the second-order rate constant of association. The IC50 is the concentration needed to halve the response being measured. Low values mean greater potency in that assay, high ones weaker potency in that assay.

T2 sequence (P78324 31-504): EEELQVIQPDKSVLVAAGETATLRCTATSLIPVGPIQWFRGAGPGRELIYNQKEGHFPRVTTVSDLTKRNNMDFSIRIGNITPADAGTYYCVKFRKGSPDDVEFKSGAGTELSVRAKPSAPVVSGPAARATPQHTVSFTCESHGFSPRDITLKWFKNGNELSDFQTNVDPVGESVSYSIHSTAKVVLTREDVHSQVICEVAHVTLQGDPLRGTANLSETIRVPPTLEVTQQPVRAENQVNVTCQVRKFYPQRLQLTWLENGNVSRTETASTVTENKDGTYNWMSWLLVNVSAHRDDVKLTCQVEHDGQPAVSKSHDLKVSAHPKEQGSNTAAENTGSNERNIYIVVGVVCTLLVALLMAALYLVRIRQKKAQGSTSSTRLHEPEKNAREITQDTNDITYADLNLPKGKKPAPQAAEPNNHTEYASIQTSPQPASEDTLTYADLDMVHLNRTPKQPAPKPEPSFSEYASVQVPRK
T3 sequence (P78324 31-370 limits assumed): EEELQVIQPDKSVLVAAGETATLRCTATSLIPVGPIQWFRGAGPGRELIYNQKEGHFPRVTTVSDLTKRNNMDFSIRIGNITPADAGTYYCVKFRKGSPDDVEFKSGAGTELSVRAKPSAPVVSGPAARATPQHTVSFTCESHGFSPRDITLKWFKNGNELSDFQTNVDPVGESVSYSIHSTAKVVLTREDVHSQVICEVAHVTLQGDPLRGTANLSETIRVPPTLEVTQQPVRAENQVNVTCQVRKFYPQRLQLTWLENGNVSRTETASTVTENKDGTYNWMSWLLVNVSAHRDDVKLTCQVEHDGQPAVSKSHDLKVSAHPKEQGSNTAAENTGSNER
T1 sequence (P78324 31-370): as the sequence (P78324 31-370 limits assumed) above
T6 sequence (P78324 31-373 limits assumed): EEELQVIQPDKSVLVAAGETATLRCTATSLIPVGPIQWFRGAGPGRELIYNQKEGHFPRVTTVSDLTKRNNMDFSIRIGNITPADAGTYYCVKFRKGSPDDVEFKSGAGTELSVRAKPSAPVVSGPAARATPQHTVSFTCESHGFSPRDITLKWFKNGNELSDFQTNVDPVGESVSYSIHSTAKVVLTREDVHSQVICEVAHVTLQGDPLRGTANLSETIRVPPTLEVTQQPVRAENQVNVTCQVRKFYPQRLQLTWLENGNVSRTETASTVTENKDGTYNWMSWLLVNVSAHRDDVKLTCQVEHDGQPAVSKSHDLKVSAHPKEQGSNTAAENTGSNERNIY

B1: 3F9-22-huIgG1 PS (antibody)
heavy: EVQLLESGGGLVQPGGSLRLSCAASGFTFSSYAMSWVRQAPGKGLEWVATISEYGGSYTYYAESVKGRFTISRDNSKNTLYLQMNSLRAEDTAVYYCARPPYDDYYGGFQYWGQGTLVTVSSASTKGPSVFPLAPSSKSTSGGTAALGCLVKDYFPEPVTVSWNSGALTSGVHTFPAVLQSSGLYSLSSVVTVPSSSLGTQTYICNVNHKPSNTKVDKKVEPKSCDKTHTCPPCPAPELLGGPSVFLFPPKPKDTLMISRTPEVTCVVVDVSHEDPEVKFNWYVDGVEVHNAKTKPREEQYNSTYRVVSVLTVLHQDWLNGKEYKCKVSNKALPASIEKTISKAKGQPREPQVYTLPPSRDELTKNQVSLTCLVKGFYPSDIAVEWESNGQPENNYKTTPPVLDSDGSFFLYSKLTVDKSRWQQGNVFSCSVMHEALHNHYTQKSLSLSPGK
light: DIQLTQSPSSLSASVGDRVTITCRASKSVSSGGYSYMHWYQQKPGKAPKLLIYLASNLESGVPSRFSGSGSGTDFTLTISSVQPEDFATYYCQHNRELPVTFGQGTKLEIKRTVAAPSVFIFPPSDEQLKSGTASVVCLLNNFYPREAKVQWKVDNALQSGNSQESVTEQDSKDSTYSLSSTLTLSKADYEKHKVYACEVTHQGLSSPVTKSFNRGEC
B1: in [1], the “IC50 (nM), SIRPA downregulation on human monocyte-derived macrophages” value worked out at 0.047 nM and the “Max % DR, SIRPA, human monocyte-derived macrophages” value amounted to 73.8%. Further, in [2], the “EC50 (nM), phagocytosis of A375 cells by primary human macrophages” value is 0.114 nM and the “Max, fold increase in phagocytosis over baseline activity” value worked out at 2.07 fold.

B2: mouse anti-SIRPA antibody m3F9 (antibody, mouse IgG1, V domains shown)
VH: EVKLVESGGGLVKPGGSLKLSCAASGFTFSSYAMSWVRQTPEKRLEWVATISDYGGSYTYYPDSVKGRFTISRDNAKYTLYLQMSSLRSEDTALYYCARPPYDDYYGGFAYWGQGTLVTVSA
VL: DIVLTQSPASLAVSLGQRATISCRASKSVSSSGYSYMHWYQQKPGQPPKLLIYLASNLESGVPARFSGSGSGTDFTLNIHPVEEEDAATYYCQHNRELPCTFGGGTKLEIK
notes: hybridoma-derived murine IgG1; also called Parental m3F9 IgG1; 3F9 mIgG1
On to B2, for which the EC50 in [3] came to 0.72 nM; in test [4], 2.1 nM; in [6], 1.09 nM; in test [8], 0.695 nM; in test [10], 0.658 nM. The molecule also showed a Kd in [5] of 18 nM. The molecule also returned a koff in test [5] of 0.001 s⁻¹. The kon in test [5] came out at 50800 M⁻¹ s⁻¹. In test [7], the binding result is on record as “no binding”. This molecule also returned an IC50 in [9] of 11.5 nM.

B3: anti-SIRPA antibody 9C2 (antibody, V domains shown)
VH: EFQLQQSGAELVKPGASVKISCKASGYSLTGYNMNWVKQSRGKSLEWIGNINPHYGSSTYNQNFKDKATLTVDKSSSAAYMQFNSLTSEDSAVYYCAREGYDGVFDYWGQGTTLTVSS
VL: QIVLSQSPAILSASPGEKVTMTCRASSSVSYMHWYQQKPGSSPKPWIYVTSNLASGVPTRFSGSGSGTSYSLTISRVEAEDAATYYCQQWSSNPRTFGGGTKLEIK
notes: described in PCT/US2017/65366; also called mAb 9C2
In the case of B3, a half-maximal effect in test [10] (EC50) was put at 7.44 nM.

B4: mAb 14.70.2 (antibody, human IgG4, V domains shown)
VH: EVQLLESGGGLVQPGGSLRLSCAASGFTFSSYAMSWVRQAPGKGLEWVSTISDYGGSYTYYADSVKGRFTISRDNSKNTLYLQMNSLRAEDTAVYYCAKPPYDDYYGGFAYWGQGTLVTVSS
VL: DIQLTQSPSSLSASVGDRVTITCRASKSVSSSGYSYMHWYQQKPGKAPKLLIYLASNLESGVPSRFSGSGSGTDFTLTISSVQPEDFATYYCQHNRELPCTFGQGTKLEIK
notes: also called h3F9 H1/L2; h3F9 IgG4
For B4, the EC50 in test [4] came out at 0.968 nM. This molecule had a concentration for half-maximal inhibition (IC50) in [9] of 2.19 nM. In test [11], this molecule yielded a Kd of 20 nM, a koff of 0.0022 s⁻¹ and a kon of 110000 M⁻¹ s⁻¹.

B5: mAb 14.70.4 (antibody, human IgG4, V domains shown)
VH: EVQLLESGGGLVQPGGSLRLSCAASGFTFSSYAMSWVRQAPGKGLEWVATISDYGGSYTYYADSVKGRFTISRDNSKNTLYLQMNSLRAEDTAVYYCARPPYDDYYGGFAYWGQGTLVTVSS
VL: DIQMTQSPSSLSASVGDRVTITCRASKSVSSSGYSYMHWYQQKPGKAPKLLIYLASNLESGVPSRFSGSGSGTDFTLTISSLQPEDFATYYCQHNRELPCTFGQGTKLEIK
notes: also called h3F9 H2/L1; h3F9 IgG4
Molecule B5 gave an EC50 in test [4] of 1.61 nM. The same molecule yielded an IC50 in test [9] of 4.61 nM. In test [11], this molecule returned a Kd of 11 nM, a koff of 0.00094 s⁻¹ and a kon of 86000 M⁻¹ s⁻¹.
